Holding throughout (conditions): SICS: thrombin in 1 M KCl (or 150 mM KCl), pH 7.5, 30 min incubation, 300 mV; gel: 16% Tris-Glycine; temperature not stated
Data set [1] has as its target T1, thrombin (human plasma, Sigma-Aldrich) (Homo sapiens) (UniProt P00734+P00734). Kind of data set: single-molecule SICS nanopore.
For data set [2], the target named is T1, thrombin (human plasma, Sigma-Aldrich) (Homo sapiens). Briefly: single-molecule SICS nanopore. This is another data set of the same source.
Data set [3] shares this target. Kind of data set: free translocation nanopore.

On to “TCAGCTTGCGGAGATGCGATGGTTGGTGTGGTTGGATCGAGAAAAAGGTACGCCC / GGGCGTACCTTTTTCTCGATATCGCATCTCCGCAAGCTGA [extended TBA 1 in single-gap DNA carrier]”, for which the binding signal (% carriers with thrombin bound) is 52 in data set [1] and more than 30 in data set [2]. In data set [3], the binding signal (% events with thrombin bound) is 14.1.

The values above are taken from article PMC11984302.
